Test results as given in IntAct's records for PubMed 24034254.

B1: Proto-oncogene tyrosine-protein kinase LCK (Mus musculus), P06240 (parent)
chain: MGCVCSSNPEDDWMENIDVCENCHYPIVPLDSKISLPIRNGSEVRDPLVTYEGSLPPASPLQDNLVIALHSYEPSHDGDLGFEKGEQLRILEQSGEWWKAQSLTTGQEGFIPFNFVAKANSLEPEPWFFKNLSRKDAERQLLAPGNTHGSFLIRESESTAGSFSLSVRDFDQNQGEVVKHYKIRNLDNGGFYISPRITFPGLHDLVRHYTNASDGLCTKLSRPCQTQKPQKPWWEDEWEVPRETLKLVERLGAGQFGEVWMGYYNGHTKVAVKSLKQGSMSPDAFLAEANLMKQLQHPRLVRLYAVVTQEPIYIITEYMENGSLVDFLKTPSGIKLNVNKLLDMAAQIAEGMAFIEEQNYIHRDLRAANILVSDTLSCKIADFGLARLIEDNEYTAREGAKFPIKWTAPEAINYGTFTIKSDVWSFGILLTEIVTHGRIPYPGMTNPEVIQNLERGYRMVRPDNCPEELYHLMMLCWKERPEDRPTFDYLRSVLDDFFTATEGQYQPQP

Variants of: B1
Conditions: with cd4_mouse Cd4, P06332
Sequence of cd4_mouse Cd4, P06332 (P06332 whole entry): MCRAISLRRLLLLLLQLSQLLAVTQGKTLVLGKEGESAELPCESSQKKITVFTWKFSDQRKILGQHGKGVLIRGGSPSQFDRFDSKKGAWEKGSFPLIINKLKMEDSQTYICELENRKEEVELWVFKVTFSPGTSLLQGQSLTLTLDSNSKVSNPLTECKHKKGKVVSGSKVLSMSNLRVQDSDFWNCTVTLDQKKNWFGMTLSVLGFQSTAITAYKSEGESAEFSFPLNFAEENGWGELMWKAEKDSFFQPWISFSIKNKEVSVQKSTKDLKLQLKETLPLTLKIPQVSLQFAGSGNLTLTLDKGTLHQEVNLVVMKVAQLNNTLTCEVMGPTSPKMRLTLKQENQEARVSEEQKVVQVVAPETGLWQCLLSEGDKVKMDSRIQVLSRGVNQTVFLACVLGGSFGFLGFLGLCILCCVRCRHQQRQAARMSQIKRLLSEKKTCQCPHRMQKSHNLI

effect of a mutation on the interaction	Variant
disrupting interaction strength	C20A;C23A

Variants of: B1
Conditions: with cd8a_mouse Cd8a

effect of a mutation on the interaction	Variant
disrupting interaction strength	C20A;C23A
